Reference: the domain aggregation screens of Martell et al. (2025)

Test: soluble fraction after stress (log2 fold change); higher = more stays soluble; pooled small domains, quantitative proteomics
Conditions: stress: pH 4
Outline: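 Values are log2 fold changes, and higher ones mean more of the domain stayed soluble. Each fold change reflects the soluble amount of a domain after acid stress and is taken as a measure of aggregation propensity. The stress was pH 4, applied to pooled custom libraries of small protein domains analysed by high-throughput quantitative proteomics.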

Row | Sequence | soluble fraction (log2)
1 | HMGHKKLTIELQDEIIVLPKELEKYNLTVSDDKTSLIYTYKSRGEKTGITDLLRDIKDAGLRLKDLITEQ | -0.0229
2 | HMGHTVHAVPEAADRQRLDVFVGNLHPTISRAYIQKLSKEDQILVNGKPEKAGFKLRTGHSVSVPDMSE | 0.177
3 | HMGIAEAKRVIVRTLHDVLGPEADFLTEKIDVAQTAAELRVHAEKYRDMLVDMGKPKKSAAFWEAFEAALP | -0.65
4 | HMGIAKLLTEQEYKIALLAAERRTNAMIAEEMNLTENTVKTHLKHIFDKVGIAGNAKNKRHLLADMMNSER | 0.0405
5 | HMGIDISAFSETALQVLRLQAAGYTAKEISEKLHITPRTVKYHASQNYRKLDAKNLVDAVQIAQALHI | -0.171
6 | HMGIEQVELASRVRDAVDSLPHHLREIILLSYFQKMSYNQIAETLQVPLGTVKSRLHAAVASFAQAWTQSS | -0.658
7 | HMGIFAQTTKWRDIYTVKKKDTIFGIANKYGLSLPELMEANPEMKQEGYMLQKGTTLFIPFASD | -0.0354
8 | HMGIGSTLTDGVRVYASDDEIVVNAPAESDVRIFNAGGAQLYAGRVADVRVAVAKGLYVVTVDGRSTKITV | 0.217
9 | HMGIILDWELFEQFADKLKRKKVDFVIEPYLRFEGRRGEQSTLFIKDPSGNYLEFKAFKNIDMLFEK | -1.38
10 | HMGIPIEAYHESLHRHYIDLWELLDTGKETLIDAEGNEVDKIHLLNAIRFNVNGMLHELLKE | -1.48
11 | HMGIQYVASGHYARMETDAQGVSRLFPPESGAPDESDRLAALSPEVLTRLILPLGDFAPEDVEEMAVD | -0.294
12 | HMGIRAFDPEAFDERLKEFFSMIAPYKKLDTRSLQPHFPHHAKEVAERIRQLAEAGKIKVDGFYISEL | -0.0943
13 | HMGIRDIHITVNGESLKLSKKQNYIFVDIFDFYPFDLSILGGSKLITTINGEQAEFTSPLKDGDVVELYWK | -0.977
14 | HMGISNEETFLLEKMSSGRRYSRKELDNLMGFEKTKTIRLLGSLINKGLVVAEGVNRARRYIR | -0.00925
15 | HMGISQAQAMQALRKLIEEEDKHTPLSDQTLMERLKAAGIPLARRTIAKYRESLGIPSAAQRK | -0.0327
16 | HMGISVEVPDLKNMSVAEAGSLLKNSGLSYAVVDSDYVKTISPGKILDQNPGRGLRVKKGRIVYLTINSL | -0.283
17 | HMGITDHIYQDLKKRLENGNYPAGTRFPSESTLADEFSVNKMTMNKIVSMLAEQGYLIRGNRGAGTRVAEN | -0.0244
18 | HMGITPSIEMILEYFAFKESSETEANKFFNYYSSIGWLVGGKTKMKDWKASARNWIMNQNKFQ | -1.01
19 | HMGIVAPGTLKHLHAVGNSYYPDWETKRHELVTAVTKGRTSSSKELYEAEANRLITRIEELLMTAAQSV | -0.548
20 | HMGIVTMPGQGSKMRFDFDATGDLPSSTSWRGMFAYANNTKRAYVSTGTTMGGYNGWRQLIAMDEYGNYQT | 0.22
21 | HMGKEIEAPDFKNMTLKEAKIAAKEYKIRIKKGDEVVSEEVEKGRIVSQDPDAGTTIKTGSTVTVNISKGL | 0.0135
22 | HMGKELSTVVVPDLTGLSVLEARNVLTKVGLQLTPSGAGIAFKQIPTPGTRLTLGATVTVYFVATGY | -1.27
23 | HMGKELTVPDVVGQNYVSAQEKLIAGGFQVEVADSVYDSRYGRGVVVDQNPHKDTRVKPGRLIYVTVNA | 0.0611
24 | HMGKEWPTPDNVEEWKKLVKKARLWPIQADQAQSEETRERNRKKWELFVAYAKRFGYRAGIGETGKPFVNN | 0.164
25 | HMGKINEIVANNIAILRKKNRLSLEELGKLSGVSKSMLALIEKGDGNPTLGILWKIANGLGVPFDELTRRP | 0.0455

Row | Sequence | soluble fraction (log2)
26 | HMGKLGENIKRIREGMGLSQRQFGELIGKSDSQIWSYENDRTDILASTLYKIAAVANVDFNNLMAGIIP | -1.35
27 | HMGKLYRDRYAPLEPDGARAGDRVFIISLEKEGTLERIDLPRKTATVLLGSSIRSTFPLDDLYQPRG | -0.163
28 | HMGKMTSTLGVHIAAYRKEHGETVAQFASRSGVSVSSIRRIESGISDPSADLVWKISRHMGMTMDDLFKKM | -0.0972
29 | HMGKNISEEDMLGYFKKIDLDYDAETKEVIAPTFRHDLFRLADLAEEVARFFGYDNIPTTLPSGEAT | -0.488
30 | HMGKPAGLIRELGNHPEDEKPVTLNNGRFGPYVKHGKVMASLTKADSPDDITFDRAIELIAIKAEKMAAKG | -0.00901
31 | HMGKPTPASQVATRWLTGNLPESLPVAGPAPSFEALARTVSTDLHPRSVLQELVRLGVAEEANGVVTLRRQ | -0.0399
32 | HMGKPVTMELLIPYSQGSLVHRISEAGEVAKTEYQNDGTYMQVTFTPSAKDHALMQEVASYRI | 0.0901
33 | HMGKSDDSLAAEKFIQHVRKNGELSYEQAYRMVHAYFPDFRNFEGMVSGAVKSGYLILIQKSTGLFLRAKE | -0.205
34 | HMGKTEMPFSTFLTEVDKGNIVSVDIRGSEISGNFRDGKGFKTYSPNYPNLVEKLSAKGVAITAGPR | 0.295
35 | HMGKTKFTEMSALELKAYAELNNNSMHWVYRMLYIGGGDVGFRKGMKELGYSGKFIWMTLERLKKS | -0.583
36 | HMGKTTQEIEERSSTSTLTLTQTPKEIISVQGKKSDQSFFTNIQYTQNGKVIVPKQTGIYDTIKVVFTVSL | -0.256
37 | HMGKVLIYKPNMSVSDVAIRLGISNAEIIKRLMGLGVMTSINQTIDRDTIELVAMDLGFSIEN | -0.581
38 | HMGLAGVQSDVKVSFDGDLLVVTSDIARSFNLFAVDGRLIRSVNLIAGRNEIRGLERGFYLAEKQKIFV | -1.36
39 | HMGLAWTVEGRTVLLGRTADRIELYNVGGGLVALARESDRISAPGVGLYVVRVVSDGQSVSQKIWIT | -0.325
40 | HMGLDMSLEREQHRALREASQWYARLADEQVDSDAERAWRHWVAADEANQRAWQYIEAVSQRFDG | -0.829
41 | HMGLDNEGFERLRQKITRLLSEEALPVKELVDSFASKMRQEVLETLAFLQQEGVIEEKNGKLFLK | -0.283
42 | HMGLIDNLTRIMEKKNISAYQLEKAGIVKQTTFTSWKKGTQPALDKIIKIMQYIEVTPNELFGY | -0.456
43 | HMGLKWVYYTNIEPDGNKINNQKLYDILKQKFVYPVIISRDELDSMELKDLTYDSYIDVEGRYFKPYNLD | -2.03
44 | HMGLNPSILVKLGNANIKTIDNLADLASDELKEILEDISITSKEADEIIMRARSSWFEEDDKKEDNI | 0.175
45 | HMGLPAWVPQNYIDRVTAIYDYSADKDDELTFNEGSTIFVLKKNDDGWWEGVMDGVTGLFPGNYVEAT | -1.63
46 | HMGLQLTPVRRRVLEILLHEHRALGAYDILDKLRSEGLGSQPPVAYRALDFLVTHGFAHKIERLNAF | -0.0897
47 | HMGLQRLTVSPEDAGVRIDKYLAEQLPDITRSYLQKLLKDGSVQMNGKPVKASTKTAVGAVIALTIPEP | -0.157
48 | HMGLSAEAARMAIQDAGLSKEDFAQKLGIKKVERVVEWEAGTSKPTFVQAQKIANATNIPFGYLFLVNPPK | 0.0939
49 | HMGLTRRAQLEVADANLKRLYPGMHQSWVTAIAEYLHSSYWRYINSLEPEYAASIQRVYEQHIDAM | -0.0592
50 | HMGLTYEQILTDVQRFVTQNHADTLSNEGNPEEARKLLKDYILQYVQNRSYHVDGQTTEELVDSLYED | -1.13

Row | Sequence | soluble fraction (log2)
51 | HMGLVDSLEPLLRRVYEALPQRRSMTTERLAVAAGLDEESVKVALARLQLSAFVGVDERGWHRSL | -0.0455
52 | HMGLVLIDSYNDIGSAKLITNKIRNLGLIFEENENKINVFAGPFEKNDINLKIDFLIRNGYTNAQLY | -1.92
53 | HMGLVQQSAQKSDDAAKLMAANNLNAAQSKYQLPDEAEKDFFTFAFERGYAVEDFVDAGLVDKIMADFSA | -0.44
54 | HMGLVVIGTEAGYPAEKAGILAGDRIRKLNGAAVPDYDTFLTALAARKGEPSAIELERDGKTLEVTVSPL | -0.21
55 | HMGLWWTEAERELVKTTIEQLYKDTNIAEPVDSKNLRASIPALKAMRTGLSAENQARVDTLLGALQV | -0.915
56 | HMGMAGILDSARMASFIQEKLGYGGGQIRASVMGGHGDDMVPLPRYSTVAGVPLSDVLTQNEIDEMFAQ | -0.259
57 | HMGMDALIGRRVFVSEEILPGDTGGRMAVDGDSWRAISVGTASNIPAGTEVRIRGHQSLVLEVEP | -0.629
58 | HMGMEENLLKERKQILMDIMKSKEYQPMKVKELAMVLNVPKEDREELRYVLNELMNEGKIVESKKGKFSIA | 0.0605
59 | HMGMESFWNRVANLLNTSTVVELAQILDVKRSTLSSWIHSDRRPPMEVLLKITRLTGVDIHRLE | -0.576
60 | HMGMETQLSPKEKSIYTIIQNRPNIQSGEVSEKLAIPLPTVKRILSDLINKGLIEKQGSGRNVSYTI | 0.241
61 | HMGMFNENLRFLRQKRQMSQQAFASILGIPRTTYSEYEKGNTEPNLKLLIRLSELLDVSLDNLISDDLTHN | -0.642
62 | HMGMKTSQKLARQREIVRLIRAQTIRTQAELADALRERAFPVSQPTLSKDIAELGLIKVPLPDSGYRYQLP | -0.105
63 | HMGMNKEHFIIELKIYLKALNPKDQAIILAKYKALFDARVAEGETEEQVAKSLGKPRVIAEEILKEQGIE | ≥ 0.43
64 | HMGMSMNEFLNNRLEQLAVEAVDKSSLGEEIFFYAEPATINLFKDAVDEDEYKVVFPVLKSIIEVEQKLSR | -1.69
65 | HMGMTAPIPGVVLKVSVLPGQKVERGDELLTIEAMKMFNVMRSPSSGTIATVHIKDGDRVVQGQPLVTFA | 0.113
66 | HMGMTTSILDDVIGMGPKRKKALLKAFGSFGALRNATLEEIKQTHTVPEQVAEDVYAVLVQYNSKSE | -0.171
67 | HMGMVKLNEEYLEKVKKHRKELHITQLQISKKLGWSLSRYQRFESGFYKEIEDDAPKKIKEEFGIDYSLL | -0.231
68 | HMGNGALLTLTVKERQVIQLVAEGKSNKQIARDLNVTPETIKSHMKNIFAKLKVDNRAQAAVMVQQ | 0.0874
69 | HMGNGDTNERIATLMQILAKQESIINQYGLENPVVSPQMYVRTLKKVVELSGFKDASSYFADIPDGWKA | 0.0699
70 | HMGNIADARRDASYVFLIGEWAKSSNLTEKKLAGLIQSNHLDIKYGITVTDVIADIRKYKNDPTYNPF | 0.312
71 | HMGNIKVPSVMGMTLEGAEKVAKDNGAVIEVLEYKESTEEDGTIIEQSPKADMTVATLEKISVVISGK | 0.0995
72 | HMGNIYKALLGKLEKQLGFLPEGTKLPPEQELAEKFGVSKPTLRRALAELAVRGIIVKQNGIGSVVAGS | ≥ 0.43
73 | HMGNKKLVLKLSKKLIKIPSFLNIYSVKLTKNGRELEINLDKSQNEAIDIINLIKKNNISFLEFDIKKR | 0.015
74 | HMGNLIIFYDAQTGSAPLLKAVKTSGATLVYEYKNLHGIAIRPSSKTSIEDAIAYFKKVNGVLSVE | 0.0783
75 | HMGNPSGLPLPRFASTRSEPINVRVGPGQKYDIAWTYLKSGIPVEIIQEFDTWRKIRDFDGAEGWIHQNLL | -0.398
